The target of test [1] is T1, HIR extracellular domain (ECD) (human, UniProt P06213 28-956, limits assumed).
T1 construct: extracellular domain; also called HIR ECD; IR ECD
As to the kind of experiment: ELISA, HIR ECD plated, biotinylated goat anti-human IgG detection. As for the experimental part: The affinity of the fusion protein for the HIR extracellular domain (ECD) was determined with an ELISA. CHO cells permanently transfected with the HIR ECD were grown in serum free media (SFM), and the HIR ECD was purified with a wheat germ agglutinin affinity column, as previously described in Coloma et al. (2000) Pharm Res, 17:266-274. The HIR ECD was plated on Nunc-Maxisorb 96 well dishes and the binding of the HIR Ab, or the HIR Ab-IDUA fusion protein, to the HIR ECD was detected with a biotinylated goat anti-human IgG (H+L) secondary antibody, followed by avidin and biotinylated peroxidase (Vector Labs, Burlingame, Calif.). The concentration of either HIR Ab or HIR Ab-IDUA fusion protein that gave 50% maximal binding was determined with a non-linear regression analysis.

The target in test [2] is T1, HIR extracellular domain (ECD). As to the kind of experiment: ELISA, HIR ECD plated. As for the experimental part:
The extracellular domain (ECD) of the HIR was purified by lectin affinity chromatography from serum free medium conditioned by CHO cells that were permanently transfected with the HIR ECD. The HIR ECD was plated in ELISA wells to bind the chimeric HIRMAb without IDUA fused, and the CHO-derived HIRMAb-IDUA fusion protein. […] The binding constants shown in FIG. 18 were determined by non-linear regression analysis of the binding isotherms.
Background: ELISA stands for enzyme-linked immunosorbent assay.

The text below walks through data of patent US20150299328A1 (ARMAGEN TECHNOLOGIES, published 2015).

B1: chimeric HIR Ab (human-mouse chimeric antibody to the human insulin receptor) (antibody, human IgG1, kappa)
heavy: not shown
light: DIQMTQSPSSLSASLGERVSLTCRASQDIGGNLYWLQQGPDGTIKRLIYATSSLDSGVPKRFSGSRSGSDYSLTISSLESEDFVDYYCLQYSSSPWTFGGGTKMEIKRTVAAPSVFIFPPSDEQLKSGTASVVCLLNNFYPREAKVQWKVDNALQSGNSQESVTEQDSKDSTYSLSSTLTLSKADYEKHKVYACEVTHQGLSSPVTKSFNRGEC
notes: Human IgG1 heavy chain constant region and human kappa light chain constant region; also called chimeric HIRMAb; HIRMAb
As usually defined, the EC50 is the concentration that produces a half-maximal response. With B1, the EC50 in test [1] was determined as 0.61 nM; in test [2], 0.75 nM.

B2: HIR Ab-IDUA fusion protein (COS cell derived; HIR Ab-HC-IDUA fusion/HIR Ab-LC antibody) (antibody, human IgG1, kappa)
heavy: not shown
light: DIQMTQSPSSLSASLGERVSLTCRASQDIGGNLYWLQQGPDGTIKRLIYATSSLDSGVPKRFSGSRSGSDYSLTISSLESEDFVDYYCLQYSSSPWTFGGGTKMEIKRTVAAPSVFIFPPSDEQLKSGTASVVCLLNNFYPREAKVQWKVDNALQSGNSQESVTEQDSKDSTYSLSSTLTLSKADYEKHKVYACEVTHQGLSSPVTKSFNRGEC
notes: Bivalent antibody-enzyme fusion; It was made by dual transfection of COS cells with pHIR Ab-LC and pCD-HC-IDUA; also called HIR Ab-IDUA fusion antibody
In the case of B2, the EC50 in test [1] stood at 0.93 nM.
